Test results published in PMC9036092 (The Journal of Cell Biology, 2022).
Where no end group is shown, it is not given here. The star is where a group is joined. FITC = O=C1OC2(c3ccc(O)cc3Oc3cc(O)ccc32)c2ccc(NC(=S)*)cc21; Ahx = NCCCCCC(=O)O

B1: FITC-labeled peptide corresponding to residues 699–729 of BAP1 (peptide)
peptide: {FITC-Ahx}-RRRQGVSIGRLHKQRKPDRRKRSRPYKAKRQ

Key:
Assay in all cases: fluorescence polarisation
[1] = target: FITC-labeled peptide corresponding to residues 699–729 of BAP1 (human)
[2] = target: Importin α5 (KPNA1), residues 66–512, without the IBB domain (UniProt P52294 66-512)
Sequence of Importin α5 (KPNA1), residues 66–512, without the IBB domain (P52294 66-512): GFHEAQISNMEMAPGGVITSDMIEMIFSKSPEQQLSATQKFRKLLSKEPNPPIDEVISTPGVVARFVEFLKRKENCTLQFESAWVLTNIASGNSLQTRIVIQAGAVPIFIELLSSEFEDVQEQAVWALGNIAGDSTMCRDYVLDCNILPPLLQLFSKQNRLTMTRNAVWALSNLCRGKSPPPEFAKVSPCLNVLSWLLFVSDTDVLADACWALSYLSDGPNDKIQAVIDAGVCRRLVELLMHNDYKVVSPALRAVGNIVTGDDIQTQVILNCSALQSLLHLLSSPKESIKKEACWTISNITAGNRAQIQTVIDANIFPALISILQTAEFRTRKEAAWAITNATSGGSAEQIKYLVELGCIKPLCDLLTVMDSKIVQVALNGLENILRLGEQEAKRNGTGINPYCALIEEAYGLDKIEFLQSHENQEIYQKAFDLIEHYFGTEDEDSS

[3] = target: B1

Which Kd [1] does the source give for “Importin α1 (KPNA2), residues 60–529, without the IBB domain (from UniProt P52292 60-529) (domain or fragment)” here?
The Kd was greater than 7200 nM.

B1 was tested. Which Kd [2] did it give?
Its Kd is 670 nM.

B2: Transportin-1 (TNPO1) with the acidic loop (residues 337–367) replaced by a GGSGGSG linker (natural protein)
chain: MEYEWKPDEQGLQQILQLLKESQSPDTTIQRTVQQKLEQLNQYPDFNNYLIFVLTKLKSEDEPTRSLSGLILKNNVKAHFQNFPNGVTDFIKSECLNNIGDSSPLIRATVGILITTIASKGELQNWPDLLPKLCSLLDSEDYNTCEGAFGALQKICEDSAEILDSDVLDRPLNIMIPKFLQFFKHSSPKIRSHAVACVNQFIISRTQALMLHIDSFIENLFALAGDEEPEVRKNVCRALVMLLEVRMDRLLPHMHNIVEYMLQRTQDQDENVALEACEFWLTLAEQPICKDVLVRHLPKLIPVLVNGMKYSDIDIILLKGDVEEDETIPDSEQDIRGGSGGSGDTISDWNLRKCSAAALDVLANVYRDELLPHILPLLKELLFHHEWVVKESGILVLGAIAEGCMQGMIPYLPELIPHLIQCLSDKKALVRSITCWTLSRYAHWVVSQPPDTYLKPLMTELLKRILDSNKRVQEAACSAFATLEEEACTELVPYLAYILDTLVFAFSKYQHKNLLILYDAIGTLADSVGHHLNKPEYIQMLMPPLIQKWNMLKDEDKDLFPLLECLSSVATALQSGFLPYCEPVYQRCVNLVQKTLAQAMLNNAQPDQYEAPDKDFMIVALDLLSGLAEGLGGNIEQLVARSNILTLMYQCMQDKMPEVRQSSFALLGDLTKACFQHVKPCIADFMPILGTNLNPEFISVCNNATWAIGEISIQMGIEMQPYIPMVLHQLVEIINRPNTPKTLLENTAITIGRLGYVCPQEVAPMLQQFIRPWCTSLRNIRDNEEKDSAFRGICTMISVNPSGVIQDFIFFCDAVASWINPKDDLRDMFCKILHGFKNQVGDENWRRFSDQFPLPLKERLAAFYGV
B2 was tested. Which Kd [3] did it give?
The Kd was 19.6 nM.
